By Km is commonly meant the concentration of substrate that gives half-maximal velocity. What is called kcat is the maximal rate divided by the concentration of active sites.

The subject of series [1] is NC(=O)c1ccc[n+]([C@@H]2O[C@H](COP(=O)(O)OP(=O)(O)OC[C@H]3O[C@@H](n4cnc5c(N)ncnc54)[C@H](O)[C@@H]3O)[C@@H](O)[C@H]2O)c1. Briefly: purified protein. The series is classed as biochemical, Enterococcus faecalis. As to conditions: 1,3-propanediol oxidation direction, 37 °C, 1,3-propanediol as co-substrate, its concentration and pH of assay not told, varied: cofactor.
For another series, the system named is OCCCO. The series is described as follows: purified protein. The series is classed as biochemical, Enterococcus faecalis. As to conditions: NAD+ close to saturation, 37 °C, pH of assay not told, kcat printed as Vmax per enzyme molecule, closely corresponding to kcat.

Take “1,3-propanediol dehydrogenase (1,3-PD), rumen plasmid-encoded (Enterococcus faecalis)”: the Km in series [1] is listed as 0.25 ± 0.04 mM. Also, in the series on OCCCO, the Km amounted to 17 ± 6 mM and the kcat was 0.183 ± 0.017 s⁻¹.

The values are drawn from paper PMC10769881, “Plasmid-encoded toxin defence mediates mutualistic microbial interactions” (Nature Microbiology, 2023).
